We go through 28 variants from the supplement of paper PMC11811203.

B1: THAP1; numbered along this chain (parent)
chain: MVQSCSAYGCKNRYDKDKPVSFHKFPLTRPSLCKEWEAAVRRKNFKPTKYSSICSEHFTPDCFKRECNNKLLKENAVPTIFLCTEPHDKKEDLLEPQEQLPPPPLPPPVSQVDAAIGLLMPPLQTPVNLSVFCDHNYTVEDTMHQRKRIHQLEQQVEKLRKKLKTAQQRCRRQERQLEKLKEVVHFQKEKDDVSERGYVILPNDYFEIVEVPA

In this data set the parent is B1. As to the kind of experiment: THAP1 transcriptional activity (GFP+/GFP- enrichment relative to wild-type constructs) (ratio to WT); higher = more THAP1 activity (PSMB5 reporter activation). The following applies: with PSMB5 promoter-GFP reporter. The method, then:
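Deep mutational scan of human THAP1. Site-saturation single amino acid variant library (residues 2-213) was expressed by lentivirus at MOI ~0.3 in THAP1-knockout HEK-293T cells carrying an endogenous PSMB5 promoter-GFP knock-in reporter. Five days post-transduction, BFP+ cells were FACS-sorted into GFP dim and GFP bright populations and variants were counted by Illumina sequencing. Activity is the GFP-bright/GFP-dim read fold change, mean of 2 replicates, divided by the mean fold change of wild-type (synonymous) constructs in the same screen pool; WT = 1.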
As for MVQSCSAYGCKNRYDKDKPVSFHKFPLTRPSLCKEWEAAVRRKNFKPTKYSSICSEHFTPDCFKRECNNKLLKENAVPTIFLCTEPHDKKEDLLEPQEQLPPPPLPPPVSQVDKAIGLLMPPLQTPVNLSVFCDHNYTVEDTMHQRKRIHQLEQQVEKLRKKLKTAQQRCRRQERQLEKLKEVVHFQKEKDDVSERGYVILPNDYFEIVEVPA [A114K], the THAP1 transcriptional activity worked out at 0.546.
As for MVQSCSAYGCKNRYDKDKPVSFHKFPLTRPSLCKEWEAAVRRKNFKPTKYSSICSEHFTPDCFKRECNNPLLKENAVPTIFLCTEPHDKKEDLLEPQEQLPPPPLPPPVSQVDAAIGLLMPPLQTPVNLSVFCDHNYTVEDTMHQRKRIHQLEQQVEKLRKKLKTAQQRCRRQERQLEKLKEVVHFQKEKDDVSERGYVILPNDYFEIVEVPA [K70P], the figure is 0.178.
On to MVQSCSAYGCKNRYDKDKPVSFHKFPLTRPSLCKEWEAAVRRKNFKPTKYSTICSEHFTPDCFKRECNNKLLKENAVPTIFLCTEPHDKKEDLLEPQEQLPPPPLPPPVSQVDAAIGLLMPPLQTPVNLSVFCDHNYTVEDTMHQRKRIHQLEQQVEKLRKKLKTAQQRCRRQERQLEKLKEVVHFQKEKDDVSERGYVILPNDYFEIVEVPA [S52T], for which the THAP1 transcriptional activity is 1.41.
With MVQSCSAYGCKNRYDKDKPVSFHKFPLTRPSLCKEWEAAVRRKNFLPTKYSSICSEHFTPDCFKRECNNKLLKENAVPTIFLCTEPHDKKEDLLEPQEQLPPPPLPPPVSQVDAAIGLLMPPLQTPVNLSVFCDHNYTVEDTMHQRKRIHQLEQQVEKLRKKLKTAQQRCRRQERQLEKLKEVVHFQKEKDDVSERGYVILPNDYFEIVEVPA [K46L], the THAP1 transcriptional activity was found to be 0.23.
As to MVQSCSAYGCKNRYDKDKPVSFHKFPLTRPSLCKDWEAAVRRKNFKPTKYSSICSEHFTPDCFKRECNNKLLKENAVPTIFLCTEPHDKKEDLLEPQEQLPPPPLPPPVSQVDAAIGLLMPPLQTPVNLSVFCDHNYTVEDTMHQRKRIHQLEQQVEKLRKKLKTAQQRCRRQERQLEKLKEVVHFQKEKDDVSERGYVILPNDYFEIVEVPA [E35D], the THAP1 transcriptional activity was determined as 0.688.
As for MVQSCSAYGCKNRYDKDKPVSFHKFPLTRPSLCKEWEAAVRRKNFKPTKYSSICSEHFTPDCFKNECNNKLLKENAVPTIFLCTEPHDKKEDLLEPQEQLPPPPLPPPVSQVDAAIGLLMPPLQTPVNLSVFCDHNYTVEDTMHQRKRIHQLEQQVEKLRKKLKTAQQRCRRQERQLEKLKEVVHFQKEKDDVSERGYVILPNDYFEIVEVPA [R65N], the figure is 0.596.
MVQSCSAYGCKNRYDKDKPVSFHKFPLTRPSLCKEWEAAVRRKNFKPTKYSSICSEHFTPDCFKRECNNKLLKENAVPTIFLCTEPHDKKEPLLEPQEQLPPPPLPPPVSQVDAAIGLLMPPLQTPVNLSVFCDHNYTVEDTMHQRKRIHQLEQQVEKLRKKLKTAQQRCRRQERQLEKLKEVVHFQKEKDDVSERGYVILPNDYFEIVEVPA [D92P]: the THAP1 transcriptional activity is 1.64.
As for MVQSCSAYGCKNRYDKDKPVSFHKFPLTRPSLCKEWEAAVRRKNFKPTKYSSICSEHFTPDCFQRECNNKLLKENAVPTIFLCTEPHDKKEDLLEPQEQLPPPPLPPPVSQVDAAIGLLMPPLQTPVNLSVFCDHNYTVEDTMHQRKRIHQLEQQVEKLRKKLKTAQQRCRRQERQLEKLKEVVHFQKEKDDVSERGYVILPNDYFEIVEVPA [K64Q], the figure is 0.25; as for MVQSCSAYGCKNRYDKDKPVSFHKFPLTRPSLCKEWEAAVRRKNFKPTKYSSICSEHFTPDCFKRECNNKLLKENAVPTIFLCTEPHDKKEDLLEPQEQLPPPPLPPPVSQVDAAIGLLMPPLQTPVNLSVFCDHNYTVEDTMHQRKRIHQLEQQVEKLRKKLKTAQQRCRRQERQLEKLKEVVHFQKEKDDVSERGEVILPNDYFEIVEVPA [Y198E], 1.15.
As for MVQSCSAYGCKNRYDKDKPVSFHKFPLTRPSLCKEWEAAVRRKNFKPTKYSSICSEHFTPDCFKRECNNKLLKENAVPTIFLCTEPHDKKEDLLEPQPQLPPPPLPPPVSQVDAAIGLLMPPLQTPVNLSVFCDHNYTVEDTMHQRKRIHQLEQQVEKLRKKLKTAQQRCRRQERQLEKLKEVVHFQKEKDDVSERGYVILPNDYFEIVEVPA [E98P], the figure is 0.816; as for MVQSCSAYGCKNRYDKDKPVSFHKFPLTRPSLCKEWEAAVRRKNFKPTKYSSICSEHFTPDCFKRECNQKLLKENAVPTIFLCTEPHDKKEDLLEPQEQLPPPPLPPPVSQVDAAIGLLMPPLQTPVNLSVFCDHNYTVEDTMHQRKRIHQLEQQVEKLRKKLKTAQQRCRRQERQLEKLKEVVHFQKEKDDVSERGYVILPNDYFEIVEVPA [N69Q], 0.143.
For MVQSCSAYGCKNRYDKDKPVSFHKFPLTRPSLCKEWEAAVRRKNFKPTKYSSICSEHFTPDCFKRECNNKLLKENAVPTIFLCTEPHDKKEDLLEPQEQLPPPPLPPPVSQVDAAIGLLMPPLQTPVNLSVFCDHNYTVEDTMHQRKRIHQLEQQVEKLRKKLKTAQQRCRRQERQLEKLKEVVHFQKEKDDVSERGYVILPNDYFEIVEVPF [A213F], the THAP1 transcriptional activity was found to be 0.655.
Take MVQSCSAYGCKNRYDKDKPVSFHKFPLTRPSLCKEWEAAVVRKNFKPTKYSSICSEHFTPDCFKRECNNKLLKENAVPTIFLCTEPHDKKEDLLEPQEQLPPPPLPPPVSQVDAAIGLLMPPLQTPVNLSVFCDHNYTVEDTMHQRKRIHQLEQQVEKLRKKLKTAQQRCRRQERQLEKLKEVVHFQKEKDDVSERGYVILPNDYFEIVEVPA [R41V]: the THAP1 transcriptional activity was 0.131.
Then MVQSCSAYGCKNRYDKVKPVSFHKFPLTRPSLCKEWEAAVRRKNFKPTKYSSICSEHFTPDCFKRECNNKLLKENAVPTIFLCTEPHDKKEDLLEPQEQLPPPPLPPPVSQVDAAIGLLMPPLQTPVNLSVFCDHNYTVEDTMHQRKRIHQLEQQVEKLRKKLKTAQQRCRRQERQLEKLKEVVHFQKEKDDVSERGYVILPNDYFEIVEVPA [D17V], with 0.314; and MVQSCSAYGCKNRYDKDKPVSFHKFPLTRPSLCKEWEAAVRRKNYKPTKYSSICSEHFTPDCFKRECNNKLLKENAVPTIFLCTEPHDKKEDLLEPQEQLPPPPLPPPVSQVDAAIGLLMPPLQTPVNLSVFCDHNYTVEDTMHQRKRIHQLEQQVEKLRKKLKTAQQRCRRQERQLEKLKEVVHFQKEKDDVSERGYVILPNDYFEIVEVPA [F45Y], with 0.154; and MVQSCSAYGCKNRYDKDKPVSFHKFPLTRPSLCKEWEAAVRRKNFKPTKYSSICSEHFTPDCFKRECNNKLLKENAVPTIFLCTEPHDKKEDLLEPQEQLPPPPLPPPVSQVDAAIGLLMPPLQTPVNLSVFCDHNYTVEDTMHQRKRIHQLEQQVEKLRKKLKTAQQRCRRQERQLEKLKEVVHFQKERDDVSERGYVILPNDYFEIVEVPA [K190R], with 0.923.
As for MVQSCSAYGCKNRYDKDKPVSFHKFPLTRPSLCKEWEAAVRRKNFKPTKYSSICSEHFTPDCFKRECNNKLLKENAVPTIFLCTEPHDKKEDLLEPQEQLPPPPLPPPVSQVDAAIGLLMPPLQTPQNLSVFCDHNYTVEDTMHQRKRIHQLEQQVEKLRKKLKTAQQRCRRQERQLEKLKEVVHFQKEKDDVSERGYVILPNDYFEIVEVPA [V127Q], the figure is 1.02; as for MVQSCSAYGCKNRYDKDKPVSFHKFPLTRPSLCKEWEAAVRRKNFKPTKYSSICKEHFTPDCFKRECNNKLLKENAVPTIFLCTEPHDKKEDLLEPQEQLPPPPLPPPVSQVDAAIGLLMPPLQTPVNLSVFCDHNYTVEDTMHQRKRIHQLEQQVEKLRKKLKTAQQRCRRQERQLEKLKEVVHFQKEKDDVSERGYVILPNDYFEIVEVPA [S55K], 0.0934; as for MVQSCSAYGCKNRYDKDKPVSFHKFPLTRPSLCKEWEAAVRRKNFKPTKYSSICSEHFTPDCFKRECNNKLLKENAVPTIFLCTEPHDKKEDLLEPQEQLPPPPLPPPVSQVDAAIGLLMPPLQTPVNLSVFCDHNYTVEDTMHQRKRIHQLEQQVEKLRKKLKTAQQRCRRQERQLEKLKEVVHFQKEKDDVSERGYVIDPNDYFEIVEVPA [L201D], 0.836.
As for MVQSCSAYGCKNRYDKDKPVSFHKFPLTRPSLCKEWEAAVRRKNFKPTKYSSICSEHFTPDCFKRECNNKLLKENAVPTIFLCTEPHDKKEDLLEPQEQLPPPPLPPPVSQVDAAIGLLMPPLQTPVNLSVFCDHNYTVEDTMHQRKRIHQLEQQVEKLRKKLKTAQQRCRRQERQLEKLKEVVHFQKEKDDVSERGYVIPPNDYFEIVEVPA [L201P], the figure is 0.855; as for MVQSCSAYGCKNRYDKDKPVSFHKFPLTRPSLCKEWEAAVRRKNFKPTKYSSICSEHFTPDCFKRECNNKLLKENAVPTIFLCTEPHDKKEDLLEPQEQLPPPPLPPPVSQVDAAIGLLMPPLQTPVNLSVFCDHNYTVEDTMHQRKRIHQLEQQVEKLRKKLKTAQQRCRRQERQLEKLKEVVHFQKEKDDVSERGYVIYPNDYFEIVEVPA [L201Y], 0.773; as for MVQSCSAYGCKNRYDKDKPVSFHKFPLTRPSLCKEWEAAVRRKNFKPTKYSSICSEHFTPDCFKRECNNKLLKENAVPTIFLCTEPHDKKEDLLEPQEQLPPPPLPPPVSQVDAAIGLLMPPLQTPVNLSVFCDHNYTVEDTMHQRKRIHQLEQQVEKLRKKLKTAQQRCRRQERQLEKLKEVVHFQNEKDDVSERGYVILPNDYFEIVEVPA [K188N], 1.03.
For the variant MVQSCSAYGCKNRYDKDKPVSFHKFPLTRPSLCKEWEAAVRRKNFKPTKYSSICSEHFTPDCFKRECNNKLLKENAVPTIFLCTEPHDKKEDLLEPQEQLPPPPLPPPVSQVDAAIGLLMPPLQTDVNLSVFCDHNYTVEDTMHQRKRIHQLEQQVEKLRKKLKTAQQRCRRQERQLEKLKEVVHFQKEKDDVSERGYVILPNDYFEIVEVPA [P126D], the THAP1 transcriptional activity stood at 1.02.
As for MVQSCSAYGCKNRYDKDKPVSFHKFPLTRPSLCKEWEAAVRRKNFKPTKYSSICSEHFTPDCFKRECNNKLLKENAVPTIFLCTCPHDKKEDLLEPQEQLPPPPLPPPVSQVDAAIGLLMPPLQTPVNLSVFCDHNYTVEDTMHQRKRIHQLEQQVEKLRKKLKTAQQRCRRQERQLEKLKEVVHFQKEKDDVSERGYVILPNDYFEIVEVPA [E85C], the figure is 0.285; as for MVQSCSAYGCKNRYDKDKPVSFHKFPLTRPSLCKEWEAAVRRKNFKPTKYSSICSEHFTPDCFKRECNNKLLKVNAVPTIFLCTEPHDKKEDLLEPQEQLPPPPLPPPVSQVDAAIGLLMPPLQTPVNLSVFCDHNYTVEDTMHQRKRIHQLEQQVEKLRKKLKTAQQRCRRQERQLEKLKEVVHFQKEKDDVSERGYVILPNDYFEIVEVPA [E74V], 0.618; as for MVQSCSAYGCKNRYDKDKPVSFHKFPLTRPSLCKEWEAAVRRKNFKPTKYSSICSEHFTPDCFKRECNNKLLKENAVPTIFLCTEPHDKKEDLLEPQEQLPPPPHPPPVSQVDAAIGLLMPPLQTPVNLSVFCDHNYTVEDTMHQRKRIHQLEQQVEKLRKKLKTAQQRCRRQERQLEKLKEVVHFQKEKDDVSERGYVILPNDYFEIVEVPA [L105H], 1.54.
As for MVQSCSAYGCKNRYDKDKPVSFHKFPLTRPSLCKEWEAAVRRKNFKPTKYSSICSEHFTPDCFKRECNNKLLKENAVPTIFLCTEPHDKKEDLLEPQEQLPPPPLPPPVSQVDAAIGLLMPPLQTPVNLSVFCDHNYVVEDTMHQRKRIHQLEQQVEKLRKKLKTAQQRCRRQERQLEKLKEVVHFQKEKDDVSERGYVILPNDYFEIVEVPA [T138V], the figure is 0.728; as for MVQSCSAYGCKNRYDKDKPVSFHKFPLTRPSLCKEWEAAVRRKNFKPTKYSSICSEEFTPDCFKRECNNKLLKENAVPTIFLCTEPHDKKEDLLEPQEQLPPPPLPPPVSQVDAAIGLLMPPLQTPVNLSVFCDHNYTVEDTMHQRKRIHQLEQQVEKLRKKLKTAQQRCRRQERQLEKLKEVVHFQKEKDDVSERGYVILPNDYFEIVEVPA [H57E], 0.0678.
